Assay results published in PMC6544907.

How the values were obtained:
[1] = biological target: human plasma plasminogen (human); assay: SPR
[2] = biological target: PAM_(SS1572), recombinant full-length PAM of GAS strain SS1572 (emm223) (Streptococcus pyogenes (GAS) strain SS1572); assay: AUC
[3] = biological target: PAM_(NS223), recombinant full-length PAM of GAS strain NS223 (emm91) (Streptococcus pyogenes (GAS) strain NS223); assay: AUC
[4] = biological target: PAM_(SS1448), recombinant full-length PAM of GAS strain SS1448 (emm86.2) (Streptococcus pyogenes (GAS) strain SS1448); assay: AUC
[5] = biological target: PAM on cells of GAS strain SS1574 (Streptococcus pyogenes (endogenous in strain SS1574)) (UniProt P49054); assay: flow cytometry on cells
[6] = biological target: PAM_(NS88.2), recombinant full-length PAM of GAS strain NS88.2 (emm98.1) (Streptococcus pyogenes (GAS) strain NS88.2); assay: AUC
[7] = biological target: PAM_(NS455), recombinant full-length PAM of GAS strain NS455 (emm52) (Streptococcus pyogenes (GAS) strain NS455); assay: AUC
[8] = biological target: PAM_(SS1574), recombinant full-length PAM of GAS strain SS1574 (emm224) (Streptococcus pyogenes (GAS) strain SS1574); assay: AUC

Substance: PAM_(SS1572), recombinant full-length PAM of GAS strain SS1572 (emm223) (natural protein)
- Kd [1]: 4.9 nM
- koff [1]: 0.00059 s⁻¹
- kon [1]: 120000 M⁻¹ s⁻¹
- stoichiometry N [2]: 2

Substance: PAM_(NS223), recombinant full-length PAM of GAS strain NS223 (emm91) (natural protein)
- Kd [1]: 1.4 nM
- koff [1]: 0.00033 s⁻¹
- kon [1]: 240000 M⁻¹ s⁻¹
- stoichiometry N [3]: 2

Substance: PAM_(SS1448), recombinant full-length PAM of GAS strain SS1448 (emm86.2) (natural protein)
- Kd [1]: 28 nM
- koff [1]: 0.001 s⁻¹
- kon [1]: 36000 M⁻¹ s⁻¹
- stoichiometry N [4]: 2

Substance: PAM_(AP53), recombinant full-length PAM of GAS strain AP53 (emm53) (natural protein)
- Kd [1]: 1.6 nM
- koff [1]: 0.00056 s⁻¹
- kon [1]: 340000 M⁻¹ s⁻¹

Substance: PAM_(AP53_short) (residues 42-175 of PAM_(AP53)) (domain or fragment)
- koff [1]: 0.00077 s⁻¹

Substance: human plasma plasminogen (natural protein)
- amount of hPg bound, fold of strain AP53 [5]: < 2 fold

Substance: PAM_(NS88.2), recombinant full-length PAM of GAS strain NS88.2 (emm98.1) (natural protein)
- Kd [1]: 1.2 nM
- koff [1]: 0.00023 s⁻¹
- stoichiometry N [6]: 2

Substance: PAM_(NS455), recombinant full-length PAM of GAS strain NS455 (emm52) (natural protein)
- koff [1]: 0.00017 s⁻¹
- kon [1]: 540000 M⁻¹ s⁻¹
- stoichiometry N [7]: 2

Substance: PAM_(SS1574), recombinant full-length PAM of GAS strain SS1574 (emm224) (natural protein)
- Kd [1]: 1.1 nM
- koff [1]: 0.00011 s⁻¹
- stoichiometry N [8]: 2
